Source: US20110280881A1, “NOVEL ANTI-HSP90 MONOCLONAL ANTIBODY” (RIKEN, priority 2010, published 2011)

Tests used:
[1] = tested on: cell surface HSP90 on DC2.4 cells; experiment: Inhibition of 6H8-OVA cross-presentation by pre-treatment of DC2.4 cells with antibodies; type: cell-based; settings: antibody 20 μg/ml 15 minutes, then 6H8-OVA 3 or 1 μg/ml, IFNγ ELISA
Procedure: Pellets of DC2.4 cells (1.5×10^6 cells) were incubated with 20 μg/ml of each antibody [6H8D2 (6H8), 2A6E9 (2A6) or 4B6G12 (456)] at 37° C. with 5% CO2 for 15 minutes. Subsequently, 6H8-OVA was added to a concentration of 3 or 1 μg/ml, and the pellets were incubated at 37° C. with 5% CO2 for 3 hours. After being washed to remove the unreacted antibody and 6H8-OVA, the cells were fixed in 0.5% para-formaldehyde. These cells (1×10^4 cells) were co-cultured with 1×10^5 OT-I CD8^+ T cells in a 96-well round-bottomed plate at 37° C. with 5% CO2; the supernatant was recovered as appropriate and assayed for IFNγ according to a standard ELISA method.

mouse HSP90α = experiment: Epitope mapping by ELISA with biotinylated overlapping peptides; type: binding; settings: 12-amino-acid overlapping peptides, antibody 1 μg/ml, OD405
Procedure: Epitope mapping was performed using biotinylated overlapping peptides. The biotinylated overlapping peptides were prepared as described in a publicly known document (J. Immunological Methods 2002; 267:27-35). The epitope mapping was performed using a library of 12-amino-acid-long synthetic peptides each having an overlap of four amino acids.
After an avidin-coated plate was blocked with BSA, the above-described biotinylated overlapping peptides (1.25-3.75 mg/ml) were added. The plate was incubated at room temperature for 2 hours, after which it was washed with PBS/Tween 20 to remove the unreacted biotinylated overlapping peptides. Each anti-HSP90 monoclonal antibody (1 μg/ml) was added, and the plate was incubated at room temperature for 2 hours. The plate was washed with PBS/Tween 20 to remove the unreacted antibody, after which anti-mouse IgG-ALP (BD Pharmingen, used at a 2000-fold dilution) was added, and the plate was incubated at room temperature for 1 hour. The plate was washed with PBS/Tween 20 to remove the unreacted anti-mouse IgG-ALP, after which a pNPP solution (KPL, 1 mg/ml) was added, and the plate was incubated at room temperature for 3 hours to cause color development. After the color development, the plate was subjected to measurement of OD405 nm. […]

[2] = tested on: MO5 (OVA-expressing melanoma); experiment: Pulmonary metastasis model with MO5 (OVA-expressing melanoma); type: in vivo, mouse; settings: MO5 i.v.; 4 days later 6H8-OVA (10 mg) i.v.; counted 15 days later
Procedure: The pulmonary metastasis suppressing effect of 6H8-OVA was examined in a pulmonary metastasis model that is generated by transvenously administering MO5 (OVA-expressing melanoma) to a mouse. MO5 was administered to the mouse from a vein; 4 days later, PBS or 6H8-OVA (10 mg) was administered from a vein. 15 days later, pulmonary metastatic spots were counted.

specific CTL = experiment: Specific CTL induction in immunized mice, comparison with IFA+OVA257-264; type: in vivo, mouse; settings: immunized twice at 1-week interval, tail vein; tetramer-positive cells in CD8-positive cells
Procedure: Mice were immunized twice with 6H8-OVA or IFA+OVA at a 1-week interval. For 6H8-OVA, the specified amount of 6H8-OVA was diluted in 200 μl of PBS and administered from the tail vein. For IFA+OVA, an emulsion was prepared so that the specified amount of OVA257-264 peptide would be contained in the 200 μl dose, and subcutaneously administered. The emulsion was prepared by mixing the required amount of the OVA257-264 peptide in PBS in advance, and adding an equal amount of IFA (SIGMA: F5506) thereto.
Seven days after final immunization, the spleen of each recipient mouse was collected and finely loosened using tweezers, and splenocytes were recovered. A pellet of splenocytes was prepared in a 15-ml tube, and 2 ml of an FCS-free complete RPMI containing the OVA257-264 peptide (final concentration 10^−5 M) was added thereto. With the lid of the tube loosened, the tube was allowed to stand in an incubator at 37° C. with 5% CO2 for 1 hour. Subsequently, the culture broth RPMI (containing 10% FCS) was added to adjust the total volume to 20 ml, and 2 ml each was put into a 24-well plate.
After 5 days of cultivation, the cells were recovered and stained using the H-2K^b+OVA257-264-specific tetramer (MBL: TS-5001-1) and FITC-anti-mouse CD8a (eBioscience: 11-0081), and induction of specific CTL was confirmed using FACS Canto. […]

OT-II CD4+ T cells = experiment: In vivo division of OT-II CD4+ T cells; design: species or system mouse; settings: series of doses injected into recipient mice

Row | Molecule | effect of antibody pre-treatment on the cross-presentation effect of 6H8-OVA [1] | epitope region mapped (amino acid numbers) (mouse HSP90α) | pulmonary metastatic spots [2] | CTL induction compared with IFA+OVA (specific CTL) | promotion of the division of OT-II CD4+ T cells (OT-II CD4+ T cells)
1 | 6H8: anti-HSP90 monoclonal antibody produced by hybridoma FERM BP-11222; epitope … (antibody) VH: QVQLQQSGPELVKPGASVRISCKASGYTFTSYYIHWVKQRPGQGLEWIGWIYPGNVNTKYNEKFKGKATLTADKSSSTAYMQLSSLTSEDSAVYFCARYGNYPFAYWGQGTLVTVSAAKTTAPSVYPLAPVCGDTTGSSVTLGCLVKGYF VL: DVVMTQTPLSLPVSLGDQASISCRSSQSLVHSNGNTYLHWYLQKPGQSPKLLIYKVSNRFSGVPDRFSGSGSGTDFTLKISRVEAEDLGVYFCSQSTHVPPTFGGGTKLEIKRADAAPTVSIFPPSSEQLTSGGASVVCFLNNFYPKDINVKWKIDGS | attenuated | HSP90α713-724 |  |  | 
2 | 6H8-OVA: high molecular weight conjugate of the 6H8 antibody and maleimide-activated OVA (conjugate) VH: QVQLQQSGPELVKPGASVRISCKASGYTFTSYYIHWVKQRPGQGLEWIGWIYPGNVNTKYNEKFKGKATLTADKSSSTAYMQLSSLTSEDSAVYFCARYGNYPFAYWGQGTLVTVSAAKTTAPSVYPLAPVCGDTTGSSVTLGCLVKGYF VL: DVVMTQTPLSLPVSLGDQASISCRSSQSLVHSNGNTYLHWYLQKPGQSPKLLIYKVSNRFSGVPDRFSGSGSGTDFTLKISRVEAEDLGVYFCSQSTHVPPTFGGGTKLEIKRADAAPTVSIFPPSSEQLTSGGASVVCFLNNFYPKDINVKWKIDGS GSIGAASMEFCFDVFKELKVHHANENIFYCPIAIMSALAMVYLGAKDSTRTQINKVVRFDKLPGFGDSIEAQCGTSVNVHSSLRDILNQITKPNDVYSFSLASRLYAEERYPILPEYLQCVKELYRGGLEPINFQTAADQARELINSWVESQTNGIIRNVLQPSSVDSQTAMVLVNAIVFKGLWEKAFKDEDTQAMPFRVTEQESKPVQMMYQIGLFRVASMASEKMKILELPFASGTMSMLVLLPDEVSGLEQLESIINFEKLTEWTSSNVMEERKIKVYLPRMKMEEKYNLTSVLMAMGITDVFSSSANLSGISSAESLKISQAVHAAHAEINEAGREVVGSAEAGVDAASVSEEFRADHPFLFCIKHIATNAVLFFGRCVSP |  |  | almost no metastatic spots | as effective as, or more effective than, IFA+OVA | required a higher dose
